The series can be described thus: label from the status in PepcDB records.

The record followed here is a protein production outcome set (Wang et al. 2014).
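Note: failed if final PepcDB status was selected cloned or expressed and not failed if soluble or beyond.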

With “MKHIHIIGIGGTFMGGLAAIAKEAGFEVSGCDAKMYPPMSTQLEALGIDVYEGFDAAQLDEFKADVYVIGNVAKRGMDVVEAILNLGLPYISGPQWLSENVLHHHWVLGVAGTHGKTTTASMLAWVLEYAGLAPGFLIGGVPENFGVSARLPQTPRQDPNSQSPFFVIEADEYDTAFFDKRSKFVHYRPRTAVLNNLEFDHADIFADLGAIQTQFHYLVRTVPSEGLIVCNGRQQSLQDTLDKGCWTPVEKFGTEHGWQAGEANADGSFDVLLDGKTAGRVKWDLMGRHNRMNALAVIAAARHVGVDIQTACEALGAFKNVKRRMEIKGTANGITVYDDFAHHPTAIETTIQGLRQRVGGARILAVLEPRSNTMKLGTMKSALPVSLKEADQVFCYAGGVDWDVAEALAPLGGRLNVGKDFDAFVAEIVKNAEVGDHILVMSNGGFGGIHGKLLEALR”, the protein production entry was “not failed”.
Next, “MKHKGLIRSYEMEFAFLYRLSDLAVIVTFMLLLVLKDTNTSMDKDYVILSFVGGISFLFMAESGNLYRSWRTSSFREQMFIVCMSWLMTSALLFMVLYFSEVYPLFDRSILALWVTITPALLLAWRVTFRTVLAYLRKMGFNTRTAIIIGQTPHGITLANEIQNHTEHGVLFDGFYDERSSDRLPSSEYPIKGAVNQALERAKRGEVDYVYIAMPMHAKERIASILNQFSDTTANTYLIPDFFTYNLLHSRWDQIGQVQTLSVFDTPFAGVSSWIKRFEDILCSSIILVLISPILLAIAIGIKLTSKGPVIFKQHRYGLDGRKIEVWKFRSMTTMDQGPNIKQATKNDPRITPFGSFLRRTSLDELPQFINVLQGTMSIVGPRPHAVAHNEEYRQIVARYMLRHKVKPGITGWAQINGYRGETDTLDKMEKRVEFDLDYIHHWSVWMDIKIIFLTVFKGFTGSNAY”: “failed”.
Next, “MKHPDALRIALVGIGKIARDQHVPTIAARDDVQLVATVSRHGTVDGVPAYHTLEDAFAAQPQIEAVALCTPPVGRHALAQAALAAGRHVFLEKPPAATLAEIHDLQDVAQRAQRTLFTSWHSRCAAGVEPARAWLADKQLVRAHITWKEDIRHWHPGQDWILEPGGMGVFDPGINALSIATHLLPRSLALRDAELHTPENRQAPLYARLAFVDTAGLPVTAEFDFLQTGHQRWDIEVETTAGMLMLSEGGAKLRIEGQLQALPASSEYDGLYGRFVQLVRAGQSEVDIAPFVHVADAFMLGARQVTAPFAW”: “failed”; “MKHPDPAQKVEGTTATTPTKVAAFFDLDKTIIAMSSTYAYGREFMNSGLISPVEALQLSLAQATYMFAGHTSEQMDNTRDQLTAMIRGWEVQQVRSIAEETMHSVVTPTIYAEARELIEHHQELGHDVIIISASVKELVEPIARELGVHKTVTTVLEAHDGMYTGEVLFYCKGDAKAQSILDLAEANNYDLSLSFAYSDSFTDLPMLEAVGNPAAVNPDRALKKIALEQGWKILSFKNPEPLFQMPSTRDVGIGTGVVAGIAAVTAGSIWWMKRARRGSA”: “failed”; “MKHVHGNGLVLGAAAFVFLAAQPVSAQTTQITEVKLNPGNGGLSVVLKTSAGSRPQVFTTKRGKALVADIINTQLRLPQGNNFRQDKPAAGIASVEVVQLDANSIRVIVTGDSDAPTSQPVIRQQDGITLSLTPSTGTTASAPVTPRPPVSTTPPASTPAQTGVVPNVLVPNPQVTIDGKPAQPAGPGQPLSQAPPFLPRAVAPPVGDIAISATDASPSTIDLGTQERVPRLVLRDAPVREVLSLLARAANLNLAYISDGVGGTPAAGGQGISQTISLDIENEPVQDVFNYVLRLSGLEANRSNRTIFVGPKLPNSTRDVVMRNLRLNQVNVGVALNFLVGLGAETAVSRERQVTNVNAVPVGTGVAPITQTQTTTETRVETQRINFQDSNPLLRGLQALGDERTNSLTLIGPPKLVEMAMNQLTQLDIRRRQVVVNVKIIDVNLSNTQDNNASLSFGIGNNYFSSDGGAASLNIGGLNPPSAGNVRNSLNPTVTTNPYSSGNTFLDLTQSVGPVPDTGVDTRNITINNPGGGSITETQGQDLNFVQRRAGISGDPFETGITAVTQGTPNIIRRTTTTDPTTGAVTETTTVTEGTRGSITAALPSLFQYPKRLLANLQAQVTNGNAKILTDPTLIVQEGQTANVKLTQEVVGNITSETTRGDGASTQTVTAEKTDVGLTLAVKIDRIDDNGFVSLSVAPVVKAPQSSAVINVSGNSQTIFLVSERSLNSGMIRLRDGQTLILSGIIQDQDRTSVSKIPILGDIPLIGSLFRKTNRTNERREVIVLLTPQVMDDSQNSSYGYNYSPSPEVRQMLERRGLNTPRR”: “failed”.
